The labels stand for the following.
T1: human Nectin-4 (human, UniProt Q96NY8 32-349)
T1 construct: a Gly32-Ser349 FLAG construct is described only under the SPR assay; also called PVRL4
T1 sequence (looked up): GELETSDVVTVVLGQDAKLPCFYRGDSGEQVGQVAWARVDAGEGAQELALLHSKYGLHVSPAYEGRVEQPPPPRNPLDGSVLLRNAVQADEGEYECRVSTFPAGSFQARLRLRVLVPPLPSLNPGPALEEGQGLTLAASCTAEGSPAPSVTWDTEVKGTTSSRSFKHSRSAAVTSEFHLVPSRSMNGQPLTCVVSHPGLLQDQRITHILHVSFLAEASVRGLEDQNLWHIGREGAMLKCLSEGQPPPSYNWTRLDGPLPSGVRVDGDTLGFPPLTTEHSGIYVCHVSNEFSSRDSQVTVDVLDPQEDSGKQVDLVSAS

T2: Human Nectin-4 (residues Gly32-Ser349) with C-terminal FLAG tag, biotinylated (human, UniProt Q96NY8 32-349, randomly biotinylated with EZ-Link Sulfo-NHS-LC-LC-Biotin)
T2 construct: range 32-349; Captured through biotin on a streptavidin CM5 chip in the SPR assay; also called PVRL4; not shown: C-terminal FLAG tag
T2 sequence (looked up): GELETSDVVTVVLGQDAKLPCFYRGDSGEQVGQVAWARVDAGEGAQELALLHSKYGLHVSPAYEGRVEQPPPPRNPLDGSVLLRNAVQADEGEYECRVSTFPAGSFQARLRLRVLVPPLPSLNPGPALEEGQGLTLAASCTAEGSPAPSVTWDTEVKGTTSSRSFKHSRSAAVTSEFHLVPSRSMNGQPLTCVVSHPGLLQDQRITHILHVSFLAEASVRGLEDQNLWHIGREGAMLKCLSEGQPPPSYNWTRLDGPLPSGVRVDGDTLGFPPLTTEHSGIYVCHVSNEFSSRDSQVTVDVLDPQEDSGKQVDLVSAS

B1: BCY488 (peptide)
peptide: ACWPLDSYWCARICA
modifications: linker 2-10-14 via TATA; not fully specified
notes: Direct FP used peptides with a fluorescent tag; also called 80-10-00
B2: BCY472 (peptide)
peptide: ACVTTSYDCWVRLGQCA
modifications: linker 2-9-16 via TATA; not fully specified
notes: Direct FP used peptides with a fluorescent tag; also called 80-11-01
B3: BCY3406 (peptide)
peptide: ACVTTSYDCWVTLGHCSRF
modifications: linker 2-9-16 via TATA; not fully specified
notes: Direct FP used peptides with a fluorescent tag; also called 80-11-08-T01
B4: BCY462 (peptide)
peptide: VDWCAPLDDYWCDRICA
modifications: linker 4-12-16 via TATA; not fully specified
notes: Direct FP used peptides with a fluorescent tag; also called 80-10-12-T01
B5: BCY471 (peptide)
peptide: ACVTTSYDCFLHLLGCA
modifications: linker 2-9-16 via TATA; not fully specified
notes: Direct FP used peptides with a fluorescent tag; also called 80-11-00
B6: BCY7683 (peptide)
peptide: {MMAE-PABC-Cit-Val-Glutaryl-βAla}-[Sar][Sar][Sar][Sar][Sar]CPF[dD]CM[hArg]NWSWPIWC
modifications: linker 6-10-20 via TATA
notes: also called MMAE-PABC-Cit-Val-Glutaryl-BCY7556
B7: BCY8255 (peptide)
peptide: {MMAE-PABC′-Cit-Val-Glutaryl-βAla}-[Sar][Sar][Sar][Sar][Sar][Sar][Sar][Sar][Sar][Sar]CP[1Nal][dR]CM[hArg]DWSTP[Hyp]WC
modifications: linker 11-15-25 via TATA
notes: also called MMAE-PABC-Cit-Val-Glutaryl-BCY8235
B8: BCY8245 (peptide)
peptide: {MMAE-PABC-Cit-Val-Glutaryl-βAla}-[Sar][Sar][Sar][Sar][Sar][Sar][Sar][Sar][Sar][Sar]CP[1Nal][dD]CM[hArg]DWSTP[Hyp]WC
modifications: linker 11-15-25 via TATA
notes: also called BT8009; MMAE-PABC-Cit-Val-Glutaryl-BCY8234
B9: BCY8253 (peptide)
peptide: {MMAE-PABC′-Cit-Val-Glutaryl-βAla}-[Sar][Sar][Sar][Sar][Sar][Sar][Sar][Sar][Sar][Sar]CP[1Nal][dR]CL[hArg]HWSTP[Hyp]WC
modifications: linker 11-15-25 via TATA
notes: also called MMAE-PABC-Cit-Val-Glutaryl-BCY8231
B10: BCY8254 (peptide)
peptide: {MMAE-PABC′-Cit-Val-Glutaryl-βAla}-[Sar][Sar][Sar][Sar][Sar][Sar][Sar][Sar][Sar][Sar]CP[1Nal][dR]CM[hArg]NWSTP[Hyp]WC
modifications: linker 11-15-25 via TATA
notes: also called MMAE-PABC-Cit-Val-Glutaryl-BCY8232
B11: BCY7825 (peptide)
peptide: {MMAE-PABC′-Cit-Val-Glutaryl-βAla}-[Sar][Sar][Sar][Sar][Sar][Sar][Sar][Sar][Sar][Sar]CPF[dD]CM[hArg]NWSTPIWC
modifications: linker 11-15-25 via TATA
notes: also called MMAE-PABC-Cit-Val-Glutaryl-BCY7814

Here are results for 33 molecules from patent publication US20210269480A1 (published 2021).

*1 amine or outer side, *2 acyl side, *3 side chain or, on linkers, in order; H or OH if unused. Bridges are numbered along the chain shown (N, C = ends). Primed or numbered codes have the meaning given here. Where no end group is shown, it is not given here. [ ]: non-standard residue; d: D form. TATA = O=C(CC[*:1])N1CN(C(=O)CC[*:2])CN(C(=O)CC[*:3])C1; 1Nal = N[C@@H](Cc1cccc2ccccc12)C(=O)O; PABC = O=C(OCc1ccc(N[*:1])cc1)[*:2]; Glutaryl = O=C(CCCC(=O)[*:2])[*:1]; Cya = N[C@@H](CS(=O)(=O)O)C(=O)O; Hyp = O=C(O)[C@@H]1C[C@@H](O)CN1; dCya = N[C@H](CS(=O)(=O)O)C(=O)O; hArg = N=C(N)NCCCC[C@H](N)C(=O)O; Cit = NC(=O)NCCC[C@H](N)C(=O)O; MMAE = monomethyl auristatin E; PABC′ = p-aminobenzylcarbamate; Agb = N=C(N)NCC[C@H](N)C(=O)O; βAla = NCCC(=O)O; Sar = CNCC(=O)O

The target in the first assay is T1, human Nectin-4. Put plainly: FP competition, tracer SEQ ID NO 217. The procedure: Peptides were diluted to an appropriate concentration in assay buffer as described in the direct binding assay with a maximum of 5% DMSO, then serially diluted 1 in 2. […] Measurements were conducted as for the direct binding assay, however the gain was determined prior to the first measurement. Data analysis was in Systat Sigmaplot version 12.0 where the mP values were fit to a user defined cubic equation to generate a Ki value: […]
Turning to QKWCAPLSDYWCNRICA (linker 4-12-16 via TATA; not fully specified, also called 80-10-13-T01) [BCY3400], the inhibition constant Ki (in general, a measure of affinity in units of concentration, obtained from inhibition or displacement) was determined as 47 nM.

The next assay has as its target T1, human Nectin-4. Briefly: FP direct binding, fluorescent peptide. As to the method: Affinity of the peptides of the invention for human Nectin-4 (Ki) was determined using a fluorescence polarisation assay, in accordance with the methods disclosed in WO 2016/067035. […] Measurements were conducted on a BMG PHERAstar FS equipped with an “FP 485 520 520” optic module which excites at 485 nm and detects parallel and perpendicular emission at 520 nm. The PHERAstar FS was set at 25° C. with 200 flashes per well and a positioning delay of 0.1 second, with each well measured at 5 to 10 minute intervals for 60 minutes. […] Data was analysed using Systat Sigmaplot version 12.0. mP values were fit to a user defined quadratic equation to generate a Kd value: f=ymin+(ymax−ymin)/Lig*((x+Lig+Kd)/2-sqrt((((x+Lig+Kd)/2)\hat{ }2)-(Lig*x))).
In turn, B1 showed a Ki of 208 nM. The same measure, in the same setting: the result for QKWCAPLSDYWCNRICA (linker 4-12-16 via TATA; not fully specified, also called 80-10-13-T01) [BCY3400] reads 72 nM.

Regarding B2, the affinity, expressed as Ki, was 502 nM. carboxyfluorescein-CPF[dD]CM[hArg]NWSTPIWC (linker 1-5-15 via TATA) [BCY8208] showed a Ki of 745 nM. Turning to B3, the Ki came out at 30 nM. The same measure, in the same setting: for B4 the value was 269 nM; for ACPFGCMKNWSWPIWCA (linker 2-6-16 via TATA; not fully specified (N-terminus), also called FI-A-(SQ ID NO: 1)-A) [80-09-02-N006], 5 nM; for B5, 888 nM.

The target in the next assay is T2, Human Nectin-4 (residues Gly32-Ser349) …. Briefly: SPR (Biacore), biotinylated human Nectin-4 on streptavidin chip. In general terms: Surface plasmon resonance follows binding to a sensor surface in real time, without labels.
Ac-CP[1Nal][dR]CMPDWSTP[Hyp]WC (linker 1-5-15 via TATA, Bicyclic peptide cyclised with TATA) [BCY8193]: the Kd (commonly the equilibrium constant for the complex coming apart) stood at 1.3 nM. On the same count and under the same terms, the result for Ac-CP[1Nal][dCya]CM[hArg]DWSTP[Hyp]WC (linker 1-5-15 via TATA, Bicyclic peptide cyclised with TATA) [BCY8163] reads 0.61 nM. Same read-out and setting: the result for {Ac-βAla}-[Sar][Sar][Sar][Sar][Sar][Sar][Sar][Sar][Sar][Sar]CP[1Nal][dCya]CM[Cya]DWSTP[Hyp]WC (linker 11-15-25 via TATA, Bicyclic peptide cyclised with TATA) [BCY8279] reads 3.31 nM. As to Ac-CP[1Nal][dR]CM[Agb]DWSTP[Hyp]WC (linker 1-5-15 via TATA, Bicyclic peptide cyclised with TATA) [BCY8192], the affinity, expressed as Kd, was 1.81 nM.

The molecule Ac-CP[1Nal][dR]CM[Hyp]DWSTP[Hyp]WC (linker 1-5-15 via TATA, Bicyclic peptide cyclised with TATA) [BCY8194] had a Kd of 1.9 nM. On the same count and under the same terms, for {Ac-βAla}-[Sar][Sar][Sar][Sar][Sar][Sar][Sar][Sar][Sar][Sar]CP[1Nal][dCya]CM[hArg]DWSTP[Hyp]WC (linker 11-15-25 via TATA, Bicyclic peptide cyclised with TATA) [BCY8276] the value was 0.86 nM; for {Ac-βAla}-[Sar][Sar][Sar][Sar][Sar][Sar][Sar][Sar][Sar][Sar]CP[1Nal][dD]CM[Cya]DWSTP[Hyp]WC (linker 11-15-25 via TATA, Bicyclic peptide cyclised with TATA) [BCY8277], 5.99 nM. The same measure, in the same setting: the result for Ac-CP[1Nal][dR]CM[hArg]DWSTP[Hyp]WC (linker 1-5-15 via TATA, Bicyclic peptide cyclised with TATA) [BCY8184] reads 0.56 nM; that for Ac-CP[1Nal][dD]CM[hArg]NWSTP[Hyp]WC (linker 1-5-15 via TATA, Bicyclic peptide cyclised with TATA) [BCY8124], 0.69 nM; that for Ac-CP[1Nal][dD]CL[hArg]DWSTP[Hyp]WC (linker 1-5-15 via TATA, Bicyclic peptide cyclised with TATA) [BCY8212], 2.42 nM. On the same count and under the same terms, the result for Ac-CP[1Nal][dR]CL[hArg]DWSTP[Hyp]WC (linker 1-5-15 via TATA, Bicyclic peptide cyclised with TATA) [BCY8213] reads 1.95 nM; that for Ac-CP[1Nal][dR]CM[hArg]NWSTP[Hyp]WC (linker 1-5-15 via TATA, Bicyclic peptide cyclised with TATA) [BCY8128], 1.06 nM. In turn, Ac-CP[1Nal][dR]CL[hArg]HWSTP[Hyp]WC (linker 1-5-15 via TATA, Bicyclic peptide cyclised with TATA) [BCY8214] displayed a Kd of 0.54 nM.

Ac-CP[1Nal][dD]CM[hArg]HWSTP[Hyp]WC (linker 1-5-15 via TATA, Bicyclic peptide cyclised with TATA) [BCY8125] yielded a Kd of 0.52 nM.

Molecule Ac-CP[1Nal][dR]CM[hArg]HWSTP[Hyp]WC (linker 1-5-15 via TATA, Bicyclic peptide cyclised with TATA) [BCY8129] returned an equilibrium dissociation constant (Kd) of 0.87 nM. On the same count and under the same terms, for Ac-CP[1Nal][dD]CMPDWSTP[Hyp]WC (linker 1-5-15 via TATA, Bicyclic peptide cyclised with TATA) [BCY8182] the value was 0.96 nM; for [βAla][Sar][Sar][Sar][Sar][Sar][Sar][Sar][Sar][Sar][Sar]CP[1Nal][dD]CMKDWSTP[Hyp]WC (linker 12-16-26 via TATA, Bicyclic peptide cyclised with TATA) [BCY8238], 3.88 nM; for Ac-CP[1Nal][dD]CM[hArg]DWSTPIWC (linker 1-5-15 via TATA, Bicyclic peptide cyclised with TATA) [BCY8127], 1.84 nM. Still for that read-out and setting: the result for Ac-CP[1Nal][dR]CM[hArg]DWSTPIWC (linker 1-5-15 via TATA, Bicyclic peptide cyclised with TATA) [BCY8215] reads 1.62 nM.

For the next assay the target is unchanged. The assay is described as above. This is another data set of the same source.
B6: binding was put at a Kd of 27.1 nM. Still for that read-out and setting: for B7 the value was 8.58 nM. Same read-out and setting: for B8 the value was 5.12 nM. B9 had a Kd of 6.22 nM. The molecule B10 displayed a Kd of 4.11 nM. B11 had a Kd of 11.6 nM.
